For the data set the following is noted: Streptomyces sp. (strain N174), Thermal, Fluorescence, reversible: No, whole UniProt chain shown.

“And” between values parts separate entries of the source, which are not always exact repeats. Equal values may be shown once.

B1: Chitosanase wild type, P33665 (protein)
chain: MHSQHRTARIALAVVLTAIPASLATAGVGYASTQASTAVKAGAGLDDPHKKEIAMELVSSAENSSLDWKAQYKYIEDIGDGRGYTGGIIGFCSGTGDMLELVQHYTDLEPGNILAKYLPALKKVNGSASHSGLGTPFTKDWATAAKDTVFQQAQNDERDRVYFDPAVSQAKADGLRALGQFAYYDAIVMHGPGNDPTSFGGIRKTAMKKARTPAQGGDETTYLNAFLDARKAAMLTEAAHDDTSRVDTEQRVFLKAGNLDLNPPLKWKTYGDPYVINS
Turning to B1, the Tm (as a rule, the temperature at which the thermal transition is half complete) is, setting by setting: (pH 4.5, Sodium acetate 50 mM) 53.5 °C and 54 °C; (pH 4.5, Sodium acetate 150 mM) 44.4 °C; (pH 4.75, Sodium phosphate 50 mM) 53.7 °C; (pH 7, Sodium phosphate 50 mM) 41.3 °C.

These data come from FireProtDB (doi:10.1016/j.bbapap.2007.05.016).
